Source: the nanobody polyreactivity screen of Harvey et al. (2022)

Test: yeast display, Sf9 membrane polyspecificity reagent, FACS + sequencing; frameworks hold sequencing errors
Procedure, shortened: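 Synthetic nanobody libraries on Saccharomyces cerevisiae BJ5465 were galactose-induced for 36–48 hours, stained 1 hour at 4 °C with 10% biotinylated, detergent-solubilized Sf9 membrane reagent and enriched on streptavidin microbeads. FACS then separated cells into low and high (top ~1%) gates by anti-HA (expression) and streptavidin (reagent binding) fluorescence. Genes were colony-PCR amplified, MiSeq 2 × 250 sequenced and CDR-length filtered. A clone's polyreactivity label is that of its gate of origin.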

| Sequence | polyreactivity (PSR sort gate) |
| --- | --- |
| QDQLVESGGGLVQAGGSLRLSCAASGSTMRWYAMGWYRQAHGKERELVARISWTTGSTYYADSVKGRFTISRDNAKNTVYLQMNSLKPEDTAVYYCAVASGQSFYWGQGTQVTVSS | high polyreactivity |
| QVQLVESGGGLVQAGGSLRLSCAASGSTYFRNAMGWYRQAPGKERELVAAISSSCGSTYYADSVKGRFTISRDNAKNTVYLQMTSLKPEDTAVYYCNADWYYAGYGYWGQGTQVTVSS | low polyreactivity |
| QVQLVESGGGLVQAGGSLRLSCAASGRPFASYALGWYREAPGKERELVAVITRGVRTYYADSVKGRFTISRDNAKNTVYLQMNSLKPEDTAVYSCAKERYNANYDTSLYDYWGQGTQVTVSS | low polyreactivity |
| QVQLVESGGGLVQAGGSLRLSCAASGSIFYGYAMGWYRQAPGKERELVASISKRGGSTYYADSVKGRFTISRDNAKNTVYLQMNSLKPEDTAVYYCAAEGVVYREYNYWGQGTQVTVSS | high polyreactivity |
| QVQLVESWGGLVQAGGSLRLSCAASGFTFTGYAMGWYRQAPGKERELVAAISQSGGSTYADSVKGRFTISRDNAKNTVYLQMNSLKPEDTAVYYCAAVWFLLTEYDYWGQGTQVTVSS | low polyreactivity |
| QVQLVESGGGLVQAGGSLRLSCAASGSIFYGNAMGWYRPAPGKERELVARISWSGSNTRYADSVKGRFTISRDNAKNTVYLQMNSLKPEDTAVYYCNARGFPGKFGYWGQGTQVTVSS | high polyreactivity |
| QVQLVESGGGLVQAGGSLRLICAASGFIFDPYAMGSYRQATGKVRELVAAISSGGSTYYADSVKGRFTISRDNAKNTVYLQMNSLKPEDNAVYYCAKVYVRYDSSTQTYLNTYGYWGQGTQVTVSS | high polyreactivity |
| QVQLVESGGGFVQAGGSLRLSCAASGFIFYQYAMGWYRQAPGKERELVAAISWGGGSTYYADSVKGRFTISRDNAKNTVYLQMNSLKQEDTAVYYCNTDSAPYYWLSDNYDSCGQGTQVTVSS | low polyreactivity |
| QDQLVESGGGLVQAGGSLRLSCPASGRTFNYYAMGWYRQAPGKERELVAAISVSTTRTYYADSVKGRFTISRDNAKNTVYLQMNSLKPEDTAVYYCAAYRAGRFGYLGQGTQVTVSS | high polyreactivity |
| QVQLVESGGGLVQAGGSLRLSCAASGYNFPYYAMGWYRQAPGKERELVAGITTDGSSTYYADSVKGRFTISRDNAKNTVYLQMNSLKPEDTAVYYCYGYPGYTWGWYDYWGQGTQVTVSS | low polyreactivity |
| QVQLVETGGGLVQAGGSLRLSCAASGSIFVLYAMVWSRQAPGKERELVAAISKRTGSSYYADSVKGRFTISRDHAKHTVYLQTNSLKPEDTAVYYCAARGRQYRYYDLDYWGQGTQVTLSS | low polyreactivity |
| QVQLVESGGGLVQAGGSLRLSCPASGSIFGSYAMGWYRQAPGKERELVASITRVDSTNYADSVKGRFTISRDNAKNTVYLQMNRLKPEDTAVYYCNAGKTIDYRDGVGYDHWGQGTQVTVSS | low polyreactivity |
| QVQLVESGGGLVQAGGILRLSCAASGFIFRLYAKGWYRQAPGKERGLVAAISSGTSTYYADSVKGRFTISRDNAKNTVYLQMNSLIPEDTAVYYCAARISRYPQDDSDYWGQGTQVTVSS | high polyreactivity |
| QVQLVESGGGLVQAGGSLRLSCAASGFTFWYYAMGWYRQAPGKERELVATISRGGGSTYYADSVKGRFTISRDNAKNTVYLQMNSLKPEDTEVYYCNAVRVHAYSTGEYGYWGQGTQVTVSS | high polyreactivity |
| QVQLVETGGGLVQAGGSLRLSCAASGFTFAPYVMGWSRQAPGKERELVAAINWSGTRTYYADSVKGRFTFSRDNAKNTVYLQMNSLKPEDTAVYYCAARSVTVSGSLQPKRRYGYWGQGTQVTVSS | high polyreactivity |
| QVQLVESGGGLVQAGGSLRLSCAASGSTFVLYALGWYRQPPGKERELVAVISWSGGSTYYADSVKGRFTISRDKAKNTVYLQMNSLKPEDTADYYCAATGWSSFYYRFDYWGQGTQVTVSS | low polyreactivity |
| QVQLVESGGGLVQAGGSLRLSCAASGSTFNRYAMGWYRQAPGKERELVAAITRSGTSTYYADSVKGRFTISRDNAKNTVYLQMNSLKPEDTAVYYCAAVRYAVHFSYDYWGQGTQVTVSS | high polyreactivity |
| QVQLVESGGGLVQAGGSLRLSCAASGSIFYVYGMGWYRQAPGKERELVAAITRSGGIKYYADSVKGRFTISRDNAKNTVYLLMNSLKPEDTAVYYCAALSYRYTDKVVYWGQGTQVTVSS | low polyreactivity |
| QVQLVESGGGLVQAGGSLRLSCAASGRTFYVYAMGWYRQAPGNERELVATISRSGGGTYYADSVKGRFTISRDNAKNTVYLQMNSLTPEDTAVYYCAAKPYRRDYGYWGQGTQVTVSS | high polyreactivity |
| QFQLVESGGGLVQAGGSLRLSCAASGGTFYSNAMGCYRQAPGKERDLVATITGGGRTYYADSVKGRFTISRDNAKNTVYLQMNSLKPEDNAVYYCAVRGYHQYKYGYWGQGTQVNVSS | high polyreactivity |
| QVQLVESGGGLVQAGGSLRLSCAACGSTFIPNGMGLYRQAPGKERELVAAITQDGGSTYYADSVKGRFTISRDNAKNTVYLQMNSLKPEDTAVYYCAASAGPYYEYGYWGQGTQVTVSS | low polyreactivity |
| QVQLVDSGGGLVQEGGSLRLSCAASGSIFLIYAMGWYRQAPGKERELVAAITGGGTTNYADSVKGRFTISRDNAKNTVYLQMNSLKPEDTAVYYCNTLYLVYLYWTSPTPSDLFDYWGQGTQVTVSS | low polyreactivity |
